Data: the supplement of paper PMC10567573
± gives the standard deviation.

Assay: protein stability index of a GFP-peptide fusion (GPS, HEK-293T) (PSI 1-6); higher = more stable
[1] = treatment: DMSO, c terminus: a fixed tail appended
[2] = treatment: MLN4924 1 uM, 8 h, c terminus: a fixed tail appended
[3] = treatment: DMSO, c terminus: native
[4] = treatment: MLN4924 1 uM, 8 h, c terminus: native
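Further: 24-mer peptide tiles fused after GFP, lentivirally expressed, FACS-sorted into six equal bins by GFP/DsRed ratio, decoded by Illumina sequencing, PSI is the read-weighted mean bin number.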

| Sequence | protein stability index [1] | protein stability index [2] | protein stability index [3] | protein stability index [4] |
| --- | --- | --- | --- | --- |
| SEDGSYGTDVTRCICGFTHDDGYM [KMT2E] | 3.33 ± 0.42 | 3.36 ± 0.34 | – | – |
| SEDWTMEERFRPLTFHGLILRSQL [CLCN6] | 2.32 ± 0.13 | 2.23 ± 0.18 | – | – |
| SEEQFRQRSPLGGDVLHAHLDIWK [SPDEF] | 3.34 ± 0.36 | 3.27 ± 0.1 | – | – |
| SEFQAALSRKVAKLVHFLLLKYRA [MAGEA6] | 2.45 ± 0.56 | 2.13 ± 0.29 | – | – |
| SEIRCDLERQNQEYQVLLDVKARL [KRT36] | 3.38 ± 0.19 | 3.34 ± 0.2 | – | – |
| SFLEQIMAPLQPSTSRAHKLPSRR [FAM189A2] | 2.8 ± 0.4 | 3.1 ± 0.3 | – | – |
| SFLQNAVLAYVQASPVRTLSPPK [LRRC45] | – | – | 2.3 ± 0.32 | 2.1 ± 0.18 |
| SFSRPADLDLIQSTPFKPLALKTP [MFF] | 3.19 ± 0.46 | 3.5 ± 0.048 | – | – |
| SFTLEEEEEGGEEEEEAAMYEEEM [FAM50A] | 5.47 ± 0.43 | 5.36 ± 0.2 | – | – |
| SGEEFYMLTRRVLQLETVLEGVVS [PKD2L1] | 2.17 ± 0.45 | 2.56 ± 0.17 | – | – |
| SGEVLNGAAVVRPPGHHAEQDAAC [HDAC6] | 5.32 ± 0.31 | 5.13 ± 0.14 | – | – |
| SGSGFGSVSWWGLSPALDLQAESP [DNAAF3] | 2.69 ± 0.56 | 2.43 ± 0.097 | – | – |
| SGWIFFYVPSSESFIIYLKNIVIA [P2RY14] | 3.26 ± 0.53 | 3.09 ± 0.88 | – | – |
| SHDPQSSRGSRRRRRQRSEKKKAH [KCNA4] | 5.38 ± 0.53 | 5.38 ± 0.23 | – | – |
| SIDKDEEFAGSSPQSSKSTVVKSL [FAN1] | 5.165 ± 0.042 | 5.27 ± 0.27 | – | – |
| SKAPVLTYGQPKQAPPADFIPAHV [EFHC1] | 3.93 ± 0.18 | 4.1 ± 0.25 | – | – |
| SKGQPRSQEESEEGEEDATSEVDK [CHGB] | 5.59 ± 0.21 | 5.4 ± 0.19 | – | – |
| SKIDALSSEKLNLQKDLETRPTQH [CEP70] | 4.71 ± 0.29 | 4.71 ± 0.073 | – | – |
| SKIGSTDNIKYQPKGGQVQIVTKK [MAP2] | 4.37 ± 0.17 | 4.63 ± 0.18 | – | – |
| SKRLYGVYDNEKKLQLQLNETKSQ [PLD5] | 4.19 ± 0.27 | 4 ± 0.18 | – | – |
| SKSLMTSVPMNGTSIQWKNHDQNN [EDNRA] | 4.25 ± 0.045 | 4.41 ± 0.18 | – | – |
| SKYGIINLQSLKTPTLKVFMHENL [DCAF4] | 1.8 ± 0.43 | 2.03 ± 0.26 | – | – |

| Sequence | protein stability index [1] | protein stability index [2] | protein stability index [3] | protein stability index [4] |
| --- | --- | --- | --- | --- |
| SLAIFSEELDGLCFKGELPLRAVH [PLEKHN1] | 2.42 ± 0.13 | 2.46 ± 0.43 | – | – |
| SLELDKMAHGYGEESEEERGLEPG [CHGB] | 5.49 ± 0.46 | 5.41 ± 0.19 | – | – |
| SLGIELHCNVSNILHMNGSQSSTY [ZNF396] | 2.18 ± 0.38 | 2.16 ± 0.27 | – | – |
| SLHPESGQENDATSPHFSTRHEGS [CD69] | 5.4 ± 0.23 | 5.33 ± 0.14 | – | – |
| SLKFKSRVPQTWSKRLYGVYDNEK [PLD5] | 2.55 ± 0.39 | 2.71 ± 0.74 | – | – |
| SLLGEPCAGPGFTHNIAHGSLGFE [SPAG8] | 3.03 ± 0.45 | 2.92 ± 0.4 | – | – |
| SLLPGAVEQPQPQFISRFLEGQSG [NEK8] | 3.5 ± 0.18 | 3.73 ± 0.16 | – | – |
| SLQPRRSIAFRLRLASFDSSGKLI [GMCL1] | 2.62 ± 0.44 | 2.39 ± 0.27 | – | – |
| SLTDISQPTIVEALLGYEMVQVAC [NEK8] | 2.73 ± 0.64 | 2.4 ± 0.5 | – | – |
| SNFYTVAVTSLSSQIQYMNTVVST [TMEM106C] | 3.13 ± 0.59 | 3.11 ± 0.49 | – | – |
| SNITSETGFRTISSLEEIVEKQGD [TMEM192] | 5.44 ± 0.19 | 5.35 ± 0.15 | – | – |
| SNIVIMLVGNKSDLRHLRAVPTDE [RAB11A] | 2.42 ± 0.34 | 2.25 ± 0.28 | – | – |
| SNKKMLLLVGGLPPGPDRLPSNLV [KLHL14] | 2.17 ± 0.19 | 2.34 ± 0.22 | – | – |
| SPELQEEFGYNAETQKLLCKNGET [ARFIP2] | 5.31 ± 0.29 | 5.46 ± 0.11 | – | – |
| SPICLSTSLSLAQVGAKGDTANEI [SERPINB5] | 4.68 ± 0.15 | 4.54 ± 0.21 | – | – |
| SPNFDGWFKTRRKEMTQKLEALHL [DENND6A] | 2.91 ± 0.18 | 3.2 ± 0.41 | – | – |
| SQGNFEGNFESLDLAEFAKKQPWW [FUNDC2] | 3.63 ± 0.27 | 3.63 ± 0.46 | – | – |
| SQLDEDEHGLHTKYIHRMMQIEFI [TRAF3IP2] | 2.44 ± 0.1 | 2.56 ± 0.34 | – | – |
| SQSPRAAGPREGHSHSHHHHHRG [PBXIP1] | – | – | 3.02 ± 0.69 | 4.03 ± 0.49 |
| SQSWHTESLPVSLGPESWQQIAMD [BCL2L13] | 3.79 ± 0.24 | 3.93 ± 0.23 | – | – |
| SQVTATSGNGDFGDWSAFNQAPSG [CLINT1] | 4.59 ± 0.068 | 4.36 ± 0.21 | – | – |
| SRIQEWYEFQIPYICPDYQSYFKT [KRT36] | 2.29 ± 0.31 | 2.17 ± 0.36 | – | – |

| Sequence | protein stability index [1] | protein stability index [2] | protein stability index [3] | protein stability index [4] |
| --- | --- | --- | --- | --- |
| SRPQSSRPVLLSKIEGHQDAVTAA [WDFY1] | 4.28 ± 0.33 | 4.3 ± 0.35 | – | – |
| SRRDESYSRGYRNRRSSRETREYA [RBMY1A1] | 4.5 ± 0.32 | 4.64 ± 0.31 | – | – |
| SRRSGKTSAVLKAGRQSVSGRKNS [C6orf223] | 4.64 ± 0.28 | 4.78 ± 0.25 | – | – |
| SRTTCLFLHLRTHTEERPYECNHC [ZNF8] | 2.62 ± 0.45 | 2.8 ± 0.43 | – | – |
| SRVTMILFVLELEWVLSTGQDKQF [WDFY2] | 3.1 ± 0.31 | 3.09 ± 0.66 | – | – |
| SSFLSFAELFSYVLQDRAAKGSLG [FEM1A] | 2.58 ± 0.35 | 2.55 ± 0.81 | – | – |
| SSISHRFHKDCASRVNNASYCPHC [EHMT1] | 3.48 ± 0.67 | 4.11 ± 0.56 | – | – |
| SSITEAVPSESEPPALQNNLLSPL [NFE2L1] | 4.75 ± 0.12 | 4.75 ± 0.21 | – | – |
| SSKVSGVLKKLAQSRRTALATSPI [YJU2B] | 2.94 ± 0.22 | 3 ± 0.26 | – | – |
| SSSSFDPSVFDGLGDLLMPTMAPA [SNAP91] | 3.55 ± 0.25 | 3.72 ± 0.33 | – | – |
| SVDGLTLSPDPEERPGAEGAPLLP [ACBD3] | 5.46 ± 0.19 | 5.54 ± 0.18 | – | – |
| SVNFDGETIEGAPPLWAASAAGHL [FEM1C] | 3.52 ± 0.23 | 3.6 ± 0.23 | – | – |
| SVNSDCETYMSADDLRINLWHLAI [PPP2R2C] | 2.52 ± 0.54 | 2.29 ± 0.21 | – | – |
| SVRISFAKGWGPCYSRQFITSCPC [SMAD6] | 2.79 ± 0.67 | 2.78 ± 0.85 | – | – |
| SVSVWDLAAPSLHVKEQLPCAGLN [TLE6] | 2.91 ± 0.2 | 3.08 ± 0.3 | – | – |
| SYAHSVEDTHVQIGQVHEEFKQNI [FCHO1] | 4.55 ± 0.25 | 4.7 ± 0.081 | – | – |
| SYRTESAQRQACMYASSAPPSEPV [TBX5] | 3.79 ± 0.16 | 4.07 ± 0.24 | – | – |
| TATCTTNNNPNSCVNIKKIFTDV [KCNA3] | – | – | 4.08 ± 0.24 | 3.97 ± 0.11 |
| TDAFLDRPPTPLFIPAKTGKDVAT [RSPH3] | 4.58 ± 0.18 | 4.6 ± 0.22 | – | – |
| TDHILESLYRDIRDIQDENQLLVA [STX11] | 3.22 ± 0.3 | 3.24 ± 0.39 | – | – |
| TDRSFNIVDIKPANMEDLTEVITA [PPP2R2C] | 4.42 ± 0.14 | 4.37 ± 0.15 | – | – |
| TEDIQTRQYRSIEVLIGAGYSTPA [SRPK2] | 2.94 ± 0.4 | 2.87 ± 0.5 | – | – |

| Sequence | protein stability index [1] | protein stability index [2] | protein stability index [3] | protein stability index [4] |
| --- | --- | --- | --- | --- |
| TEKKQTKVEFPEARIYEETLNILL [KCTD10] | 2.12 ± 0.1 | 2.23 ± 0.33 | – | – |
| TELPELLKLYYRRLFPYSQYYRWL [PRIM1] | 2.93 ± 0.79 | 2.47 ± 0.67 | – | – |
| TEPWGGTAIRPLKILPWSPEKIGT [PNLIPRP1] | 3.45 ± 0.26 | 3.65 ± 0.36 | – | – |
| TFFCTNATIHGAIRLVCSRGNRLK [SCNN1D] | 2.54 ± 0.27 | 2.41 ± 0.41 | – | – |
| TGEAARPHKGLNLHPLLSGRLGRW [PCDHGC5] | 2.77 ± 0.17 | 2.9 ± 0.23 | – | – |
| TGGAAGAGGAGRGEDEENREHRVR [KCTD13] | 5.24 ± 0.26 | 5.53 ± 0.32 | – | – |
| TGLVYDQNMMNHCNLWDSHHPEVP [HDAC6] | 3.08 ± 0.29 | 3.25 ± 0.18 | – | – |
| TGNYRKGNAHLGYSLVTHIPAGAR [ADAMTSL2] | 2.95 ± 0.17 | 2.69 ± 0.3 | – | – |
| TIEDEDTKVRKQEIIKVTEQLIEA [CAMK2A] | 5.27 ± 0.28 | 5.02 ± 0.25 | – | – |
| TKITSKHVKMMLSGVCLFAVFIAL [PTGFR] | 3.2 ± 0.24 | 2.78 ± 0.1 | – | – |
| TKKGDLQWNAGEKKLTGGANWQPK [SNAP91] | 4.07 ± 0.13 | 4.26 ± 0.23 | – | – |
| TKRVRQLLDLDPEVECLKANTNEV [GOLPH3] | 4.29 ± 0.32 | 4.62 ± 0.22 | – | – |
| TLCAMLPLLLFTYLNSFLHQRIPQ [SLC29A1] | 3.18 ± 0.14 | 3.06 ± 0.17 | – | – |
| TLPTLPAKVYVGVKQEIAEMRIPA [NCF4] | 3.36 ± 0.34 | 3.7 ± 0.39 | – | – |
| TLRLRENCVLSSSPNPFPEISRGE [ZNF8] | 3.61 ± 0.33 | 3.66 ± 0.33 | – | – |
| TLSLKQTILDKEEKQRRNVAKNY [TTC32] | – | – | 4.27 ± 0.36 | 4.29 ± 0.54 |
| TLYLIVALATVSLLSLVTFTFLSA [PCDHGC5] | 3.2 ± 0.13 | 3.26 ± 0.29 | – | – |
| TNGELNTDDPTAGRSNAPITAPTE [CSNK1G3] | 5.41 ± 0.15 | 5.41 ± 0.16 | – | – |
| TNGHGGEAAEGKSLGSALKPGEGR [TRIM29] | 5.08 ± 0.24 | 5.27 ± 0.33 | – | – |
| TNGSFSPSGNNGSVNWRTGSFHGP [DLC1] | 3.09 ± 0.3 | 3.11 ± 0.23 | – | – |
| TNLLEGAVAFMPEDITKGTQSLPT [AUP1] | 4.55 ± 0.12 | 4.47 ± 0.17 | – | – |
| TPGSRIESILMSLPLTARWEYMHS [CPOX] | 2.33 ± 0.27 | 2.24 ± 0.12 | – | – |
